Targets include pP53-02; pP53-04; pP53-01; pP53-03.
Common to all, as to assay: fluorescence polarization

B1: GST-MDM2 (other)
chain: MCNTNMSVPTDGAVTTSQIPASEQETLVRPKPLLLKLLKSVGAQKDTYTMKEVLFYLGQYIMTKRLYDEKQQHIVYCSNDLLGDLFGVPSFSVKEHRKIYTMIYRNLVVVNQQESSDSGTSVSENRCHLEGGSDQKDLVQELQEEKPSSSHLVSRPSTSSRRRAISETEENSDELSGERQRKRHKSDS
In the case of B1, the Kd – broadly, the equilibrium constant for the complex coming apart – in the assay with pP53-02 is 766 nM; with pP53-04, 334 nM; in the assay with pP53-01 it was 2800 nM; in the assay with pP53-03 it was 546 nM.

The record behind these values is US20110028686A1 (published 2011).
